What was measured:
Assay in all cases: SPR (Biacore), PEP07843 immobilized, analyte protein injected
holo-Transferrin = holo-Transferrin (UniProt P02787 20-698)
Procedure: (§1) In the binding experiment, HBS-EP was used as running buffer and the flow rate was 30 μl/min. […] The analytes, i.e. the panels of 24 or 12 different proteins, were each diluted in HBS-EP or HBS-EP supplemented with 500 mM NaCl to final concentrations of from 0.4 to 250 nM and injected for 5 min. […] The results were analyzed using the BiaEvaluation software.
(§2) The Z-ABD-Z polypeptides were injected over surfaces containing HSA followed by injection of the analyte proteins.

hIL23 = target: T1, hIL23 (human, UniProt Q9NPF7 20-189; P29460 23-328)
T1 construct: the two subunits are general knowledge
T1 sequence (looked up) 1: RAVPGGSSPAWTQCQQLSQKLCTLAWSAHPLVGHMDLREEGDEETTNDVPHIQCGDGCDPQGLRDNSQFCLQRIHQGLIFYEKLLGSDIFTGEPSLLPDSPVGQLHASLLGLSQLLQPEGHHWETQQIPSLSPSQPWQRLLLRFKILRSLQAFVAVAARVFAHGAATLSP
T1 sequence (looked up) 2: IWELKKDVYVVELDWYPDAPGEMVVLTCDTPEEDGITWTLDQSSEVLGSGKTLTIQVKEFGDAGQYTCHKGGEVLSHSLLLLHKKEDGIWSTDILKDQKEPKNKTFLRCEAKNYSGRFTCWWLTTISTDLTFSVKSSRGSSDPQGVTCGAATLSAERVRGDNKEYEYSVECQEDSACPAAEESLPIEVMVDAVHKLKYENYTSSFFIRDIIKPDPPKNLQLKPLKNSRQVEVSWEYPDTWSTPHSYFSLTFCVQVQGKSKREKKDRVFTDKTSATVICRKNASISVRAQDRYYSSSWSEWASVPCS
Procedure: as §1, §2

[1] = target: T2, Alpha-2-HS-glycoprotein (AHSG Human HEK) (human, UniProt P02765 19-367, limits assumed)
T2 sequence (looked up): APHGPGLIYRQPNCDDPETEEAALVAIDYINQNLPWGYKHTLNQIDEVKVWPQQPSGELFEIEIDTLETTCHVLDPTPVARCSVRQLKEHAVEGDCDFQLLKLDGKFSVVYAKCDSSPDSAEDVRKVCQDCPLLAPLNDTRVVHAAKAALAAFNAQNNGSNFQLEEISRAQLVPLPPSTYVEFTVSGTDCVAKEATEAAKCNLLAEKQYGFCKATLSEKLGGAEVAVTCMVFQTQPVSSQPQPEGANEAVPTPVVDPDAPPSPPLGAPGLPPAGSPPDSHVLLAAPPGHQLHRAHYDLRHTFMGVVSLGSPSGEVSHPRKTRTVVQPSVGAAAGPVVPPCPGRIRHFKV
Procedure: as §1, §2

IL-1R1 = target: T3, IL-1R1 (UniProt P14778 18-332, limits assumed)
T3 sequence (looked up): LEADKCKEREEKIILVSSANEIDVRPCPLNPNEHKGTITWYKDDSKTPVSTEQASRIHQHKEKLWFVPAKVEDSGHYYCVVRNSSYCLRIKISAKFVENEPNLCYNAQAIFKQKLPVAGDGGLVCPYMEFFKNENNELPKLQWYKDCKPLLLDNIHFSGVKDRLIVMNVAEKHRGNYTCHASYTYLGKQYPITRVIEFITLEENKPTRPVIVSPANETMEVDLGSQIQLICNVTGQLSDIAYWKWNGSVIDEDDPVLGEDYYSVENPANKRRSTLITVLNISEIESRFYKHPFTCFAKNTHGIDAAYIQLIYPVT
Procedure: as §1, §2

[2] = target: Alpha-1-antitrypsin (SERPINA1 Human) (human, UniProt P01009 25-418)
Procedure: as §1, §2

hIL-17C = target: T4, hIL-17C (human, UniProt Q9P0M4 19-197)
T4 sequence (looked up): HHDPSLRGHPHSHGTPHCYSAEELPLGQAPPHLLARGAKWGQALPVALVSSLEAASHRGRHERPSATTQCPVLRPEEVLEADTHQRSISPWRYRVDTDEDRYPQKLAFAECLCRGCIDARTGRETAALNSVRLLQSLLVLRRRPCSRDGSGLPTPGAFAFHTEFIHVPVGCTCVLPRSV
Procedure: as §1, §2

Measured: binding result

Sequence of holo-Transferrin (P02787 20-698 limits assumed): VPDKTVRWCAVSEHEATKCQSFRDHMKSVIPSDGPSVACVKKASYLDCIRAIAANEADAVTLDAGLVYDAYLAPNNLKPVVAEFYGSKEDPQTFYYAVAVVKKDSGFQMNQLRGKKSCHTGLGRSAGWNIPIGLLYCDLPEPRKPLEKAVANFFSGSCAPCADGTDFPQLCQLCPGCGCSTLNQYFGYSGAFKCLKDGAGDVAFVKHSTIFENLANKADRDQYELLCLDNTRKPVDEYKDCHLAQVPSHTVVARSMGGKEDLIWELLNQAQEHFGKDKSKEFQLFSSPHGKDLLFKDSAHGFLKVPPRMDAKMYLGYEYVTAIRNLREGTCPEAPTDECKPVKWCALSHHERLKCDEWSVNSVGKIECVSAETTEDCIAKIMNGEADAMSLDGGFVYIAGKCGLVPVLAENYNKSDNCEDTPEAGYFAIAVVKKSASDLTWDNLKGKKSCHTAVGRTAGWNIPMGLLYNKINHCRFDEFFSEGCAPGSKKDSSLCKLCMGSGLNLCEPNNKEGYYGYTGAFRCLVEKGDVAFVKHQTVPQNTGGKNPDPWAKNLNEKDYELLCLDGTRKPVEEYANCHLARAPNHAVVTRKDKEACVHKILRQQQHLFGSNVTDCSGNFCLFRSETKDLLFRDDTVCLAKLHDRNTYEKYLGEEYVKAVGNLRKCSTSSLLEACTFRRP
Sequence of Alpha-1-antitrypsin (SERPINA1 Human) (P01009 25-418 limits assumed): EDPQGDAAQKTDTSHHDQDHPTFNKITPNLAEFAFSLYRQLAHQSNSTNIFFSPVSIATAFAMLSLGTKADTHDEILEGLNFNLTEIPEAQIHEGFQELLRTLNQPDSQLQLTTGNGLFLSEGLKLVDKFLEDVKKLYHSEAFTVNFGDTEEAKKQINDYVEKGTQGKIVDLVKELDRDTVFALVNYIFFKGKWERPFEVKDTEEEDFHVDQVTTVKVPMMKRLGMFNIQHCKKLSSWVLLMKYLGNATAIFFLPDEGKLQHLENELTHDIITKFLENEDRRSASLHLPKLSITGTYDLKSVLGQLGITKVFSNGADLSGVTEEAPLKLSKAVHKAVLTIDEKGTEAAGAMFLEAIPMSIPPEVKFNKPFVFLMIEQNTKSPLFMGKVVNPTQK

B1: ABD variant PEP07843 (designed binder)
chain: GSSLAEAKEAANAELDSYGVSDFYKRLIDKAKTVEGVEALKDAILAALP
no binding (tested: 50, 250 nM): all assays above
